In a protein production outcome set (Wang et al. 2014) one finds protein production data, which are given here for 19 sequences.
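Also: failed if final PepcDB status was selected cloned or expressed and not failed if soluble or beyond.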

The data set in a line: label from the status in PepcDB records.
Regarding “MGQAPDRPHLETFLARLRAGAKILELGCGGGQDSEYMLSAGFDVHPTDGTPDIAKAAQARLGIPVRTLLFENIEDAALYDAVWANACLLHVPRLALPGIIGRIHTALKPGGVFYASFKAGEVEGRDTFGRYYNYPSKAWLEETYGQFAWTEVEIEARQGSGYDKLPTDWLHVTATKALEHHHHHH”, the protein production result is listed as “failed”.
The result for “GHMSEFVSIAARQEGAVGIIELARPDVLNALSRQMVAEIVAAVEAFDRNEKVRVIVLTGRGRAFAAGADIQEMAKDDPIRLEWLNQFADWDRLSIVKTPMIAAVNGLALGGGFELALSCDLIVASSAAEFGFPEVNLGVMPGAGGTQRLTKLIGPKRALEWLWTGARMSAKEAEQLGIVNRVVSPELLMEETMRLAGRLAEQPPLALRLIKEAVQKAVDYPLYEGMQFERKNFYLLFASEDQKEGMAAFLEKRKPRFQGK” reads “not failed”.
The result for “MKMHRDSISLNSYEEMAEYYFSYVDQKPFNAYYERPATLSLLPDVAGKRVLDAGCAAGWYTQWLLDKGAAVTAVDFSAGMIEMTRKRVGERAEIIRADLNEPLDFMAKESCDIVLSSLALHYLKDWTLVMSEFHRILAKGGLLIFSVHHPFMDFTVFQRDNYFLTELLDDEWETQKGKVKVQFYRRPLSQILSAVLEAGFLLEKVLEPMPTEEFKSAQPDAYRRLTYKPQFLFLRARKP” reads “failed”; that for “MTTKRVNTATNKIMTLNTFLDTCFLLFISILFYLSIPIYPNKVVVVPQGSLKKVFFSLKEQGVDMNALDLLFLRLMGMPKKGYIDMGDGALRKGDFLVRLIKAKAAQKSATLIPGESRYFFTQILSETYQLETSDLNQAYESIAPRLNGEVIEDGVIWPDTYHLPLGEDAFKIMQTLIGQSMKKHEALSKQWLGYYHKEEWFEKIILASIVQKEAANVEEMPLIASVIFNRLKKGMPLQMDGALNYQEFSHAKVTKERIKTDNTPYNTYKFKGLPKNPVGSVSLEAIRAVIFPKKTDFLYFVKMPDKKHAFSATYKEHLKNINLSNNHF”, “failed”.
For “MIERLELRNLTVFTGLTLELSPKINVIIGENGTGKTHLLKAAYGLCAGAPLFKNKPDTGDDELEAALTAKLLRLFMPLDDKLGKMHRQGATDQAYLSAKFAGGQKIAATFFNNSKALAVQDRANYEKYQAEAVFIPTKEVLSFMKGFNSLYEKYGLSFDQTYQDICLLLDLPEVRPETLHEKSKWAMAEIEGICGGRFVFYGGGKVTFKTENAEYSANSMAEGFRKAGILSRLLETGAIQPGVSGPLFWDEPESNLNPKLMKLLVQILLELSRNGQQIILATHDYVLLKWFDLLMDKGKDDHVRFHSLYRDADTSEIKVASTEDYLKITPNPIDEAFGFLINQEIENDMGGLGK”, the protein production entry is reported as “failed”.
The result for “MSPVVIAVVGVVVLLVLLALVVVSRYKVAGPSEAFIVTGRRGKRSTDPETGRVFTDNSGQKVVVGGGVFVVPFVQQRFTLDLSSRHIPVAVRGAVTLRGVKANLEGVAIVKVGGTEDAIRAAAQRFLMQQDGIVGFTQEVLSGALRAIVGRMSVEDVIRDRAAFAGQVAEEAEASLSGQGLVLDAFQIQDITTEGSYLEDLGRPEAARAKQEADIAEAVARRAAEQARLKAEEEIAVAQRTLYLKQAEIKAETDQAEARANASGPLAEAARQQDILAEQEKVAERQAALKDRQLDTEVRKPADAQRYAAEQEAEARRVARVKQAEAERAAGIAAAQAEAERARLTGEGEKQRRSALADAVRLEGDAEAAAIGAKGAAEAEAMEKKADAFDRYGDAAVLQMLVEVLPQVVAKASEPLAAVDKMTVISTDGASRLTRTVADNVAQGMELLGSTTGVDLTSLLKGITAKEGITAKGEAGRATTENGKVEITDLEHHHHHH” reads “not failed”; that for “MLLKPDQRLKLDDTDDNLFYAYPRFVTHVDEGFIQRLTDLYRERLQPNTRILDMMSSWVSHLPEEIKFAHVEGHGLNAEELKRNPRLNHYFVQNLNENPGLPLPDQEFDAVLNCVSVQYLQYPEAVFSEIHRILKPGGVAIISFSNRMFYQKAIQAWRDASEPGRLELVKRYFASVPGFSTPEIIARKSTAPNFLQWLGAPGGDPFYAAIAHRKLEHHHHHH”, “failed”.
Under “MDRHTTEGWRRWAARLGAAAMALLLAACAAPRQQAASVDELPSWNDGPSRTAIVEFVRAVTRSGGPDFVAADERIAVFDNDGTLWSEQPMYFQMLFALDRVKSMAPRHPDWARRQPFKAALQDDHAALAKGGDVALMKIVGATHTDMSTDTFTRSVRYWASTARHPRFDRLYTELTFAPMRELLDYLRAHGFKTYIVSGGETEFMRSWTQQAYGIPPEQVIGSSFVTTYGVRDGEPTLWRHGKLEFNDDGPGKPVAIQRYIGRRPILAFGNSDGDLQMLQWTAAGDGKRFAGLVHHTDAQREWAYDRDSRIGRLDRALDEARRQDWTVVDMKTEWKRVYAFEQP” stands “not failed”.
The result for “MSSSHLAERHAFSDLSLLSEALAQSVTVTLRNAIERYGKASLVVPGGHTPVVYLPRLAQMDLPWQQVFITLSDERWVEPTSEQSNERLVREHFLQHMQQQPHFIALKTGHIHPDQAITDIDARLAELPQPFSLVILGLGEDGHIASLFPGMALNPDTTSLCQTATPPAAPSLRISLSLHALINSDRIILVITGKEKRQLIDRLIESPDQNIPFVRLMQFKPVELFETD” reads “not failed”; that for “MASSLTKDSVTPGTPGTEKTFFGHPRGLATLFMTEMWERFSYYGMRALLPLYLVAPGGLGLGAGTATAIYSVYLSLVYLLTMPGGWFGDRVWGPRKTVAIAGGVIMLGHLTLALPSSGTFYAGLGLVAIGSGLLKANISTMVGQLYDGPDDPRRDGGFTVFYMGINLGAFAAPLTIGTIGENVNWHLGFALAAVGMGLGVLQFLIGSRHLAPHSSAVPKPLSVEEKTSTLRKAAFWAALAVVFYAIVGFSGHYTLNWILVPLTLLGVIIPVLVLTNIKRDKSLDRAEQSKMSAYIWFFVAAAVFWMIYDQGGSTLSLFADSSADNSVFGWSFPVSWYQSVNPVIIMALAPVFATVWLALNRRGKEPSTVVKFCGGLVLVGASFFLFLAPLGIAEGGHKAAAMWLVAIYFVQTCGELMLSPVGLSVTTKMAPVKYASQMMGVWFLAVTAGDATTGLLSIAGVDLNKTGIVAAEATLAVVAGVAIWMYRKRVKELMGDVR”, “failed”; that for “MKKATIAATAGIAVTAFAAPTIASASTVVVEAGDTLWGIAQSKGTTVDAIKKANNLTTDKIVPGQKLQVNNEVAAAEKTEKSVSATWLNVRSGAGVDNSIITSIKGGTKVTVETTESNGWHKITYNDGKTGFVNGKYLTDKAVSTPVAPTQEVKKETTTQQAAPAAETKTEVKQTTQATTPAPKVAETKETPVVDQNATTHAVKSGDTIWALSVKYGVSVQDIMSWNNLSSSSIYVGQKLAIKQTANTATPKAEVKTEAPAAEKQAAPVVKENTNTNTATTEKKETATQQQTAPKAPTEAAKPAPAPSTNTNANKTNTNTNTNTNTNNTNTNTPSKNTNTNSNTNTNTNSNTNANQGSSNNNSNSSASAIIAEAQKHLGKAYSWGGNGPTTFDCSGYTKYVFAKAGISLPRTSGAQYASTTRISESQAKPGDLVFFDYGSGISHVGIYVGNGQMINAQDNGVKYDNIHGSGWGKYLVGFGRV”, “failed”.
With “LLPKYNILTEDQVQKIHENTMKILEEIGIEFEYEPALEVFRREGQKVEGKRVYLTREFVESKLKSAPAEFTLHARNPENNVVIGGDNIVFMPGYGAPFIYELDGSRRKTTLQDYENFAKLAGASKNMHLSGGTMAEPQDIPDGVRHLQMLYSSIKNSDKCFMGSAEGKERAEDSVEIAAILFGGKDVIKEKPVLVSLINSLTPLKYDERMLGALMAYAEAGQAVIIASLVMAGSTGPASLAGTLSLQNAEVLAGISLAQSINPGTPVIYGSTSALSDMRSGSLSIGSPECALFISASAQLARFYGVPSRSGGGLNDSKTVDAQAGYESMMTLMAANLTGVNFVLHTAGILQYFMAMSYEKFIMDDEIAGMLLHYMKGYTFDEDGMAFDVIEKVGPGGHFLTQKHTRKNHKREFYTPTLSDRSAYDTWAKEKLETKQRAHARWQQILANYVPPALDPEIDAKLQAFIAQRGKEVGEE”, the protein production result is on record as “not failed”.
The result for “DSLGREAKCYNELNGCTKIYDPVCGTDGNTYPNECVLCFENRKRQTSILIQKSGPC” reads “failed”; that for “MVEKGKMVKISYDGYVDGKLFDTTNEELAKKEGIYNPAMIYGPVAIFAGEGQVLPGLDEAILEMDVGEEREVVLPPEKAFGKRDPSKIKLIPLSEFTKRGIKPIKGLTITIDGIPGKIVSINSGRVLVDFNHELAGKEVKYRIKIEEVVDDKKNIVKEIVKMYVPRLSDVKVTIRNGTVKIELPEFAPFIPNIQTAKMAIANEILKRLEDAEKVSFVETFERKKETKEENK”, “failed”.
Under “MAMADVTIRGAGIFGLSIAWACVLRGARVQVVDPFGPGAGSSGGLVGALAPHVPENWNAKKAFQFDSLIMAEGFWAGVEAAGGVSPGYGRTGRIQPLADERAVDLADERAENARTLWQGQAEWRVCPVDEMGSWCPPSPTGLVVHDTLSARMHPRRACAALVGALAVRGVEVLAEAPDRGQVIHATGIAGLEELNRARGRLVGTGVKGQAALLRFDAGRQAPQLFADTVHIVPHADGTLAIGSTSERDYDDPTSTDAALDTVLDRAMQAVPLLHGAEVIERWAGVRPRSRSRAPMLGAHPLYPDQFIANGGFKIGFGMAPKVAHVMAELVLEGQDNIPQDFRPEASL” stands “failed”; under “MLVNGKWTADWQPVQKADDHGRFVRQVSSFRNWITPDGSAGPTGTGGFAAEAGRYRLYVALICPWASRTLMARRLKGLDGLIPVTVVNPVMGTQGWEFGGHDDAEEDPLFGARHLHEIYTRAEPQFTGRATVPVLWDMKRDAMVNNESADILRMFDTAFEGLAPSDLRLYPAALAGEIDALNAQVYDRLNNGVYKAGFASTQEAYDEAVAGVFEMLDHLEYRLTGDYIFGGALTETDIRIFVTLIRFDAAYHGLFKTNRRQIADYPRLWAYMRRILARPGVRETVNMDHITRGYYSIKALNPSRIRPVGPAHIEAALRETAAGI”, “not failed”.
The result for “MIYLHAIDPIAFSLGPVKVHWYGLMYLAGFGAAWCLGRQRIQAGRLLGVNIDGFSDLLFYAMMGVVLGGRVGYMLFYAFHDFLQEPLLLFRVWEGGMSFHGGLIGVLLAVAWWSRRQRMHMFDVVDFCAPLVPVGLGFGRLGNFIGGELWGKLTHNGWGVIFPRAPLSDVPAGQLAMQDVINFVQIQEHYAAGLLGHYARHPSQLYEAFLEGLVMFIVLWLFSRKPRPRYAVSGLFALLYGVFRFLVEFVRMPDNGVYVAFGWLTRGQILSLPLIVIGLFLFWLSCRSPVLQPVPAPEVAK” reads “failed”; that for “MYQVVASDLDGTLLSPDHFLTPYAKETLKLLTARGINFVFATGRHYIDVGQIRDNLGIRSYMITSNGARVHDSDGQQIFAHNLDRDIAADLFEIVRNDPKIVTNVYREDEWYMNRHRPEEMRFFKEAVFNYKLYEPGELDPQGISKVFFTCEDHEHLLPLEQAMNARWGDRVNVSFSTLTCLEVMAGGVSKGHALEAVAKMLGYTLSDCIAFGDGMNDAEMLSMAGKGCIMANAHQRLKDLHPELEVIGSNADDAVPRYLRKLYLD”, “not failed”; that for “MTDEKKVPSKPARPARKPRADKPADAKPAAVPKVAAPAVVEGSSTNAAAVKKSLRDGGMTALPSEILFAVGSIPLVVDKDALSTLAAALVASDDPSTWFVANRELIRAVVFVPQQNNVLRATPLLSVRPVASLSSVHNWQVRNHLSGLHVVVGGTGAGKSKWLNAQTPDVTIRWGEPGETFDMEESSIAVADLTEMLAVALLLATADYRVVIDSFRNLVFGITGAAGPGGVSVALYAALTSLNNICAELGVLLVAAINPMSSDDKVSLVYNNIAASVAGMTVVNNAAVVSQTIRSGTGRIFSGEPAPRNDSPVEYHEPRHTQLDEPSGPSARIRLESNNIDPDDENDNRPRRGARISL”, “not failed”.
